In paper PMC9010429, “Validation of a small molecule inhibitor of PDE6D-RAS interaction with favorable anti-leukemic effects” (Blood Cancer Journal, 2022):

Molecular target: Recombinant human Rac1 (Q2-L177) (human, UniProt P63000 2-177)
Experiment: AlphaScreen or HTRF; 30 nM His-Rac1 pre-incubated with compound 30 min at room temperature, then 300 nM FLAG-Tiam1, 2 nM anti-His-Eu3+, 20 nM anti-FLAG-XL665; 50 mM Hepes pH 7.6, 100 mM NaCl, 1 mM DTT, 10 mM MgCl2, 0.1% Nonidet P-40; titration of NSC23766, DW0069 or DW0254
Conditions: both partners purified

binding result: binds
B1: Truncated recombinant human Tiam1 (R1033-E1406) (domain or fragment)
chain: RQLSDADKLRKVICELLETERTYVKDLNCLMERYLKPLQKETFLTQDELDVLFGNLTEMVEFQVEFLKTLEDGVRLVPDLEKLEKVDQFKKVLFSLGGSFLYYADRFKLYSAFCASHTKVPKVLVKAKTDTAFKAFLDAQNPKQQHSSTLESYLIKPIQRILKYPLLLRELFALTDAESEEHYHLDVAIKTMNKVASHINEMQKIHEEFGAVFDQLIAEQTGEKKEVADLSMGDLLLHTTVIWLNPPASLGKWKKEPELAAFVFKTAVVLVYKDGSKQKKKLVGSHRLSIYEDWDPFRFRHMIPTEALQVRALASADAEANAVCEIVHVKSESEGRPERVFHLCCSSPESRKDFLKAVHSILRDKHRRQLLKTE
notes: human Tiam1, residues R1033-E1406, pTriIJ-HV vector; also called FLAG-tagged Tiam1; not shown: FLAG, N-terminal, kept
